B1: His6-LEDGF/p52 (natural protein)
chain: not shown
notes: lacks the IBD and C-term; also called His6-tagged LEDGF/p52; source: E. coli BL21(DE3)pLysS, purified (Ni-NTA, heparin); not shown: His6, N-terminal, kept
B2: His6-LEDGF_(1–426) (domain or fragment)
chain: not shown
notes: LEDGF/p75 residues 1-426 (lacks the C-term with the α6-helix); elsewhere LEDGF1-426 is Flag-tagged; source: E. coli BL21(DE3)pLysS, purified (Ni-NTA, heparin); not shown: His6, N-terminal, kept
B3: Flag-LEDGF/p75 E451R-E452R (natural protein)
chain: not shown
notes: LEDGF/p75 with two reverse-charge mutations in the α6-helix; source: E. coli BL21(DE3)pLysS, purified (heparin column, Superdex 75); not shown: Flag, N-terminal, kept
B4: MLL1_(1–160)-GST (domain or fragment, UniProt Q03164 1-160, looked up)
chain: MAHSCRWRFPARPGTTGGGGGGGRRGLGGAPRQRVPALLLPPGPPVGGGGPGAPPSPPAVAAAAAAAGSSGAGVPGGAAAASAASSSSASSSSSSSSSASSGPALLRVGPGFDAALQVSAAIGTNLRRFRAVFGESGGGGGSGEDEQFLGFGSDEEVRVR
notes: MLL1 residues 1-160; also called MLL1_(1–160) fragment; not shown: GST, C-terminal, kept
B5: MBP-LEDGF_(325–426) (domain or fragment, UniProt O75475 325-426, looked up)
chain: EQQNKDEGKKPEVKKVEKKRETSMDSRLQRIHAEIKNSLKIDNLDVNRCIEALDELASLQVTMQQAQKHTEMITTLKKIRRFKVSQVIMEKSTMLYNKFKNM
notes: source: E. coli BL21(DE3)pLysS, purified (amylose resin); not shown: MBP, N-terminal, kept
B6: His6-LEDGF_(345–530) (domain or fragment, UniProt O75475 345-530, looked up)
chain: ETSMDSRLQRIHAEIKNSLKIDNLDVNRCIEALDELASLQVTMQQAQKHTEMITTLKKIRRFKVSQVIMEKSTMLYNKFKNMFLVGEGDSVITQVLNKSLAEQRQHEEANKTKDQGKKGPNKKLEKEQTGSKTLNGGSDAQDGNQPQHNGESNEDSKDNHEASTKKKPSSEERETEISLKDSTLDN
notes: the plasmid has a TEV site after the His tag, a cleavage is not reported; source: E. coli BL21(DE3)pLysS, purified (Ni-NTA, heparin); not shown: His6, N-terminal, kept
B7: His6-LEDGF_(345–530) N454A-K455A (domain or fragment, UniProt O75475 345-530, looked up)
chain: B6 chain with N110A, K111A
notes: source: E. coli BL21(DE3)pLysS, purified (Ni-NTA, heparin); not shown: His6, N-terminal, kept
B8: His6-LEDGF_(345–530) E451A (domain or fragment, UniProt O75475 345-530, looked up)
chain: B6 chain with E107A
notes: as for B7

Holding throughout (conditions): both partners purified
Experiment [1] deals with T1, Flag-LEDGF/p75 WT (UniProt O75475 1-530).
T1 construct: LEDGF/p75, aa 1-530, from the pCp-NAT-3xFlag-LEDGF WT construct; also called Flag-tagged LEDGF/p75; Flag-LEDGF_(1–530); source: E. coli BL21(DE3)pLysS, purified (heparin column, Superdex 75); not shown: 3xFlag, N-terminal, kept
Put plainly: AlphaScreen or HTRF; competition: 150 nM GST-LEDGF/p75 and 150 nM Flag-LEDGF/p75 outcompeted by increasing concentrations of a third LEDGF construct; apparent IC50. (In Alpha technology, singlet oxygen from a donor bead excites a nearby acceptor bead.)

Experiment [2] addresses T2, GST-LEDGF/p75 (UniProt O75475 1-530).
T2 construct: LEDGF/p75 (lens epithelium-derived growth factor p75), aa 1-530, expressed from pGEX-p75; also called GST-tagged LEDGF/p75; full-length GST-tagged LEDGF/p75; source: E. coli BL21(DE3)pLysS, purified as described before [24]; not shown: GST, N-terminal, kept
In words: AlphaScreen or HTRF; direct titration or cross-titration of two differently tagged proteins at nanomolar concentrations (one partner fixed at 100-350 nM); no nuclease; protein batches held DNA at 2 µg/mL or lower.

The target in experiment [3] is B3. Described as above.
Experiment [4] has as its target T3, Flag-LEDGF_(1–426) (UniProt O75475 1-426).
T3 construct: LEDGF/p75 residues 1-426, truncation missing the complete C-term including the α6-helix; source: E. coli BL21(DE3)pLysS, purified (heparin column, Superdex 75); not shown: Flag, N-terminal, kept
The description is as above.

Experiment [5] has as its target T1, Flag-LEDGF/p75 WT. Described as above.
Experiment [6] addresses B6. The description is as above.

Numbering of substitutions follows the chain as printed. In names and notes the source's numbering stands.

What is called IC50 is the concentration at which inhibition is half-maximal. For the molecule B1, in experiment [1], the IC50 worked out at 12.2 nM.
As for B2, the IC50 in experiment [1] came to 65.5 nM.
In the case of B3, in experiment [2], the binding result was “binds”.
With B4, the binding result in experiment [3], in experiment [4] and in experiment [5] was “binds” in each case.
As for B5, in experiment [6], the binding result is “binds”.
For B6, the “fold stronger binding than the mutants E451A and N454A-K455A” value in experiment [4] is ~2 fold. Besides, the IC50 in experiment [1] came to 222 nM.
Turning to B7, the binding result in experiment [4] and in experiment [5] was “binds” each time.
With B8, the binding result in experiment [4] and in experiment [5] was “binds” throughout.

The values are drawn from paper PMC10854676, “The Impact of Lens Epithelium-Derived Growth Factor p75 Dimerization on Its Tethering Function” (Cells, 2024).
